Results taken from publication PMC7689096, “Cyclizing Painkillers: Development of Backbone-Cyclic TAPS Analogs” (Frontiers in Chemistry, 2020).
Values joined by “and” are separate entries in the source; they are usually repeats but may differ in a detail not shown here. Identical values can stand only once. Numbered stars: 1 amine (or outer) side, 2 acyl side, 3 side chain; on linkers, the order of the positions; unused ones are H or OH. Bridge positions count the residues as written; N and C are the ends. Square brackets hold non-standard residues; d marks the D form. Primed or numbered codes have the meaning given here. Ends that are not written are not given here. dR(Nα-6-aminohexyl) = N=C(N)NCCC[C@H](C(=O)[*:2])N(CCCCCCN[*:3])[*:1]; dR(Nα-3-aminopropyl) = N=C(N)NCCC[C@H](C(=O)[*:2])N(CCCN[*:3])[*:1]; N(6-aminohexyl)Gly = O=C(CN(CCCCCCN[*:3])[*:1])[*:2]; NGly(3-aminopropyl) = O=C(CN(CCCN[*:3])[*:1])[*:2]; N(2-Aminoethyl)Gly = O=C(CN(CCN[*:3])[*:1])[*:2]; Gly(N-2-aminoethyl)′ = not defined here; CO = O=C([*:1])[*:2]; Nlys = NCCCCNCC(=O)O; Sar = CNCC(=O)O

Columns and labels:
[1] = molecular target: T1, δ (DOP, OPRD2) opioid receptor (Mus musculus, UniProt P32300); experiment: DOP opioid receptor functional antagonism in NG-10815 cells; type: cell-based, rat; conditions: Between 10^−9-10^−6 M, percent inhibition of control specific agonist response
T1 construct: NG-10815 cells which express significant endogenous levels of δ opioid receptors; host or cells: NG-10815 (NG108-15) mouse N18TG2 neuroblastoma x rat C6-BU-1 glioma hybrid cells
T1 sequence (P32300 whole entry): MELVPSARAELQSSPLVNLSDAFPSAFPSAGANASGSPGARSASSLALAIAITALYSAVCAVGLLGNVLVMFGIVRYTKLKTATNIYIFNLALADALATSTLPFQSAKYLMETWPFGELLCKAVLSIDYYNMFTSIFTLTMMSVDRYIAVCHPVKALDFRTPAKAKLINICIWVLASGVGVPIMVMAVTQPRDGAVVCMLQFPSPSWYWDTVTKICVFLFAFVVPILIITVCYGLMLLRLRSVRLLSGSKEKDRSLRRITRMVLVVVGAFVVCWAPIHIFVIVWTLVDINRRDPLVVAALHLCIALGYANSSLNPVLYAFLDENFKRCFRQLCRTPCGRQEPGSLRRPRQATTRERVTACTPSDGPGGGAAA
Method: (§1) Peptides were tested for μ (MOP, OPRM1) and δ (DOP, OPRD2) opioid receptor activation functional agonism and antagonism using CHO cells expressing human recombinant μ receptors and NG-10815 cells which express significant endogenous levels of δ opioid receptors. The cultures were incubated for 10 min at 37°C followed by impedance measurements of CHO cells and cAMP was assayed by the HTRF method using NG-10815 cells, according to CEREP standard assay protocols. The respective reference, non-peptide small molecules were tested concurrently with the TAPS analogs. The agonist compounds were: DPDPE (selective agonist of DOP receptor) and DAMGO (high MOP receptor specificity) and the antagonist compounds were: Naltrindole (selective DOP receptor antagonist) and CTOP (MOP receptor antagonist). […] The results are expressed as a percentage of respective control-specific response. […] These findings indicate that TAPS cyclic peptides are MOP selective full agonists. […] The cyclic TAPS peptide had lower activity than the linear parent TAPS peptide (90 ± 5%) – a finding that can be attributed to their restricted conformation relative to the flexible linear peptide conformation.
(§2) The respective reference, non-peptide small molecules were tested concurrently with the TAPS analogs; Agonist compounds DPDPE ([D-Pen2,D-Pen5]enkephalin), selective agonist of DOP receptor at 2 × 10^−9 M and DAMGO ([D-Ala2, N-MePhe4, Gly-ol] enkephalin), high MOP specificity at 2.5 × 10^−9 M; Antagonist compounds: naltrindole 7-(cyclopropylmethyl)-6,7-dehydro-4,5α-epoxy-3,14-dihydroxy-6,7-2′,3′-indolomorphinan hydrochloride, selective DOP antagonist, 5 × 10^−10 M and CTOP (D-Phe-Cys-Tyr-D-Trp-Orn-Thr-Pen-Thr-NH2), MOP antagonist at 3.4 × 10^−7 M. Depending on the assay volume and solvent tolerance, the stock solutions were diluted to [100×], [333×] or [1,000×] in 100% DMEM solvent, then either added directly or further diluted to [10×] or [5×] in H2O or Hank's balanced salt solution (HBSS) before addition to the assay well (final solvent concentration kept constant). The cultures were incubated for 10 min at 37°C followed by impedance measurements using cellular dielectric spectroscopy of CHO cells and cAMP was assayed by homogeneous time resolved fluorescence (HTRF) method using NG-10815 cells, according to CEREP standard assay protocols (https://euroscreenfast.com/assays/opioid-orl1-camp-fast-0360c; https://euroscreenfast.com/assays/opioid-op1-delta-camp-fast-0379c). The results (mean of three experiments) are expressed as a percent of control specific agonist response [(measured TAPS specific response/control specific agonist response) × 100] and as a percent inhibition of control specific agonist response [100 – (measured TAPS specific response/control specific agonist response) × 100] obtained in the presence of the TAPS compounds. Results showing a stimulation or an inhibition lower than 25% were considered not significant and mostly attributable to variability of the signal around the control level. Results showing a stimulation or an inhibition higher than 50% were considered to represent significant effects of the TAPS compounds.

[2] = molecular target: T2, human recombinant μ (MOP, OPRM1) receptor (Homo sapiens, UniProt P35372); experiment: MOP opioid receptor functional agonism in CHO cells expressing human recombinant μ receptors; type: cell-based; conditions: At 10^−6 M, percent of control specific agonist response, values lower than 25% not significant
T2 construct: host or cells: CHO cells
T2 sequence (P35372 whole entry): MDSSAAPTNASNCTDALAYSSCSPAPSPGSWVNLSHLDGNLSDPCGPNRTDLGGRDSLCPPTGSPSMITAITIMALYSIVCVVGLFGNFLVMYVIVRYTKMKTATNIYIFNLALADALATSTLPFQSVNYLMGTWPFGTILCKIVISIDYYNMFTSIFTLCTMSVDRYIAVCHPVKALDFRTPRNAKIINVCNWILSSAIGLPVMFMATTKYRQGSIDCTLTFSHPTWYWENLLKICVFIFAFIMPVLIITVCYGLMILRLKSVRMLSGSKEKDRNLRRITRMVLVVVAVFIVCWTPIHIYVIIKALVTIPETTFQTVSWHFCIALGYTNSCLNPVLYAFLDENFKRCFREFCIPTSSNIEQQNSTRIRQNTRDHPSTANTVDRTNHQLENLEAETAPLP
Method: as §1
Evaluation of the Agonist Activity of Compounds at the Human μ Receptor in Transfected CHO Cells, Determined by Measuring Their Effects on cAMP modulation Using the HTRF Detection Method
Thereafter, the adenylyl cyclase activator NKH 477 is added at a final concentration of […]. Following 10 min incubation at 37°C, the cells are lysed and the fluorescence acceptor (D2-labeled cAMP) and fluorescence donor (anti-cAMP antibody labeled with europium cryptate) are added. After 60 min at room temperature, the fluorescence transfer is measured at lex = 337 nm and lem = 620 and 665 nm using a microplate reader (Rubystar, BMG). The cAMP concentration is determined by dividing the signal measured at 665 nm by that measured at 620 nm (ratio). The results are expressed as a percent of the control response to 1 μM DAMGO. The standard reference agonist is DAMGO, which is tested in each experiment at several concentrations to generate a concentration-response curve from which its EC50 value is calculated.
as §2, with “Results showing a stimulation or an inhibition lower than 25% were considered not significant and mostly attributable to variability of the signal around the control level. Results showing a stimulation or an inhibition higher than 50% were considered to represent significant effects of the TAPS compounds.” left out

[3] = molecular target: T2, human recombinant μ (MOP, OPRM1) receptor; experiment: MOP opioid receptor functional antagonism in CHO cells expressing human recombinant μ receptors; type: cell-based; conditions: Between 10^−9-10^−6 M, percent inhibition of control specific agonist response, values lower than 25% not significant
Method: as §1, §2

[4] = molecular target: T1, δ (DOP, OPRD2) opioid receptor; experiment: DOP opioid receptor functional agonism in NG-10815 cells; type: cell-based, rat; conditions: At 10^−6 M, percent of control specific agonist response
Method: as §1
Evaluation of the Agonist Activity of Compounds at the Rat delta2 Receptor Endogenously Expressed in NG-10815 Cells, Determined by Measuring Their Effects on Impedance Modulation Using the CellKey (CDS) Detection Method
Cells are seeded onto 96-well plate coated with fibronectin at 2 × 10^5 cells/well in HBSS buffer (Invitrogen) + 20 mM HEPES (Invitrogen) with 0.1% BSA and allowed to equilibrate for 60 min at 37°C before the start of the experiment. Plates are placed onto the system and measurements are made at a temperature of 37°C. […] Impedance measurements are monitored for 10 min after ligand addition. The standard reference agonist is DPDPE, which is tested in each experiment at several concentrations to generate a concentration-response curve from which its EC50 value is calculated.
as §2, with “The results (mean of three experiments) are expressed as a percent of control specific agonist response [(measured TAPS specific response/control specific agonist response) × 100] and as a percent inhibition of control specific agonist response [100 – (measured TAPS specific response/control specific agonist response) × 100] obtained in the presence of the TAPS compounds. Results showing a stimulation or an inhibition lower than 25% were considered not significant and mostly attributable to variability of the signal around the control level. Results showing a stimulation or an inhibition higher than 50% were considered to represent significant effects of the TAPS compounds.” left out

[5] = molecular target: human recombinant μ opioid receptor (human) (UniProt P35372)
Sequence of human recombinant μ opioid receptor (human) (P35372 whole entry): as above

## TAPS c(2-3): backbone-cyclic TAPS analog, urea bridge; n-m alkyl chain lengths on nitrogens of Gly and Arg; ring size 15 (YRF[N(2-Aminoethyl)Gly]-NH2; bridge 2-4 via CO; not fully specified (residue 2); also: urea bridge between the two N-alkyl chains)
[1]
  DOP antagonist (%): 2%
[2]
  MOP agonist (%): 24%
[3]
  MOP antagonist (%): 1%

## TAPS c(3-6): backbone-cyclic TAPS analog, urea bridge; ring size 19 (YRF[NGly(3-aminopropyl)]-NH2; bridge 2-4 via CO; not fully specified (residue 2); also: urea bridge between the two N-alkyl chains)
[1]
  DOP antagonist (%): 1%
[2]
  MOP agonist (%): 1%
[3]
  MOP antagonist (%): 2%

## TAPS c(4-3): backbone-cyclic TAPS analog, urea bridge; ring size 17 (YRF[Nlys]-NH2; bridge 2-4 via CO; not fully specified (residue 2); also: urea bridge between the two N-alkyl chains)
[4]
  DOP agonist (%): 11%
[1]
  DOP antagonist (%): 0%
[2]
  MOP agonist (%): 63 ± 5% and 63^** %

## TAPS c(4-6): backbone-cyclic TAPS analog, urea bridge; ring size 20 (YRF[Nlys]-NH2; bridge 2-4 via CO; not fully specified (residue 2); also: urea bridge between the two N-alkyl chains)
[1]
  DOP antagonist (%): 3%
[2]
  MOP agonist (%): 1%
[3]
  MOP antagonist (%): 1%

## TAPS c(6-3): backbone-cyclic TAPS analog, urea bridge; ring size 19 (YRF[N(6-aminohexyl)Gly]-NH2; bridge 2-4 via CO; not fully specified (residue 2); also: urea bridge between the two N-alkyl chains)
[4]
  DOP agonist (%): 19%
[1]
  DOP antagonist (%): 8%
[2]
  MOP agonist (%): 75 ± 9% and 75^** %

## Y[dR(Nα-3-aminopropyl)]F[Gly(N-4-aminobutyl)] (bridge 2-4 via CO; not fully specified) [TAPS c(4-3)]
[5]
  MOP agonist (%) at 10^-6 M: percent of control specific agonist response (DAMGO), CHO cells expressing human recombinant μ receptors: 63%

## Y[dR(Nα-6-aminohexyl)]F[Gly(N-2-aminoethyl)′]-NH2 (bridge 2-4 via CO; not fully specified) [TAPS c(2-6)]
[5]
  MOP agonist (%) at 10^-6 M: percent of control specific agonist response (DAMGO), CHO cells expressing human recombinant μ receptors: 48%

## Y[dR(Nα-3-aminopropyl)]F[Gly(N-3-aminopropyl)] (bridge 2-4 via CO; not fully specified) [TAPS c(3-3)]
[5]
  MOP agonist (%) at 10^-6 M: percent of control specific agonist response (DAMGO), CHO cells expressing human recombinant μ receptors; values lower than 25% are not significant: 1%

## Y[dR(Nα-6-aminohexyl)]F[Gly(N-6-aminohexyl)] (bridge 2-4 via CO; not fully specified) [TAPS c(6-6)]
[5]
  MOP agonist (%) at 10^-6 M: percent of control specific agonist response (DAMGO), CHO cells expressing human recombinant μ receptors; values lower than 25% are not significant: 21%

## Y[dR]F[Sar] [linear peptide Tyr-D-Arg-Phe-Sar (TAPS)]
[5]
  MOP agonist (%) at 10^-6 M: percent of control specific agonist response (DAMGO), CHO cells expressing human recombinant μ receptors: 90%

## Y[dR(Nα-6-aminohexyl)]F[Gly(N-3-aminopropyl)] (bridge 2-4 via CO; not fully specified) [TAPS c(3-6)]
[5]
  MOP agonist (%) at 10^-6 M: percent of control specific agonist response (DAMGO), CHO cells expressing human recombinant μ receptors; values lower than 25% are not significant: 1%

## Y[dR(Nα-6-aminohexyl)]F[Gly(N-4-aminobutyl)] (bridge 2-4 via CO; not fully specified) [TAPS c(4-6)]
[5]
  MOP agonist (%) at 10^-6 M: percent of control specific agonist response (DAMGO), CHO cells expressing human recombinant μ receptors; values lower than 25% are not significant: 1%

## Y[dR(Nα-3-aminopropyl)]F[Gly(N-6-aminohexyl)] (bridge 2-4 via CO; not fully specified) [TAPS c(6-3)]
[5]
  MOP agonist (%) at 10^-6 M: percent of control specific agonist response (DAMGO), CHO cells expressing human recombinant μ receptors: 75%

## Y[dR(Nα-3-aminopropyl)]F[Gly(N-2-aminoethyl)′] (bridge 2-4 via CO; not fully specified) [TAPS c(2-3)]
[5]
  MOP agonist (%) at 10^-6 M: percent of control specific agonist response (DAMGO), CHO cells expressing human recombinant μ receptors; values lower than 25% are not significant: 24%
